The text below walks through data of patent US20110294144.

The series relates to recombinant tau protein (Wako Pure Chemical Industries, Ltd.).

With recombinant PRKX protein (Invitrogen), the “S214 phosphorylation of tau, in vitro kinase reaction of the two recombinant proteins, Western blot” value was “the amount of S214 phosphorylation was enhanced by the addition of ATP as compared to the control without addition of ATP”.
